This passage reports Kd results from PMC2924388, “Conformational Adaptation of Asian Macaque TRIMCyp Directs Lineage Specific Antiviral Activity” (PLoS Pathogens, 2010).

Experiment [1] concerns the target T1, CypA domain of Macaca fascicularis TRIMCyp2 (Mafa TRIMCyp2) (Macaca fascicularis).
T1 construct: Cyp 54, 66, 69 and 143 are TRIMCyp 357, 369, 372 and 446. numbers count on: CypA; Natural allele; also called Mafa TCyp2; Mafa Cyp; source: E. coli BL21 (DE3), purified (Ni-NTA, gel filtration)
The experiment can be described thus: ITC; MicroCal ITC200; cyclophilin (typical concentration 1.4 mM) in the syringe, capsid (typical concentration 120 µM) in the cell; 50 mM KPO4 pH 7.4, 100 mM NaCl, 1 mM DTT; 15°C; one-state model. As to conditions: both partners purified. For orientation: Isothermal titration calorimetry measures the heat released or taken up as one component is titrated into another.

Experiment [2] has as its target T2, CypA domain of Mafa TRIMCyp2 with Cyp K143E (K446E in TRIMCyp) (Macaca fascicularis).
T2 construct: As m1 but with glutamate at Cyp 143 (the residue of CypA and of Mamu TRIMCyp); also called Mafa TCyp2 K143E; K143E mutant; source: E. coli BL21 (DE3), purified (Ni-NTA, gel filtration), as per the wild-type protein
The description is as above. As to conditions: both partners purified.

B1: FIV capsid N-terminal domain (domain or fragment)
chain: PIQTVNGVPQYVALDPKMVSIFMEKAREGLGGEEVQLWFTAFSANLTPTDMATLIMAAPGCAADKEILDESLKQLTAEYDRTHPPDAPRPLPYFTAAEIMGIGLTQEQQAEARFAPARMQCRAWYLEALGKLAAIKAKS
modifications: Unmodified wild-type domain. Strain and limits are not printed: the Petaluma isolate is assumed. The start is the capsid p24 N-terminus (136); the end is set by homology to HIV-1 CA-N 1-146 (pdb 2X83)
In general, Kd refers to a measure of binding affinity in units of concentration. A low value points to a tighter complex. With B1, the results for the Kd in experiment [1] and in experiment [2] were 27 µM and 15 µM, respectively.
